assay: yeast display, Sf9 membrane polyspecificity reagent, FACS + sequencing; frameworks hold sequencing errors
Outline: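 After 36–48 hours of galactose induction, yeast (Saccharomyces cerevisiae BJ5465) displaying a synthetic nanobody library were stained at 4 °C for 1 hour with 10% biotinylated, detergent-solubilized Sf9 membrane reagent. Streptavidin microbeads enriched the stained cells before FACS sorting into low and high (top ~1%) gates on anti-HA and streptavidin fluorescence. Each clone's polyreactivity label reflects its gate of origin.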

Sequence | polyreactivity (PSR sort gate)
QVQLVESGGGLVQAGGSLRLSCAASGRIFVFYAMGWYRQAPGKERELVASITLTDGSTYYADSEKGRFTISRDNAKNTVYLQMNSLKPEDTAVYYCAARISGGSTFRYQRMYYWGQGTQVTVSS | low polyreactivity
QVQLVESGGGLVQAGGSLRLSCAASGRIFVGNAMGRYRQAPGKERELVAAISRSGGRTYYADSVKGRFTISRDNAKNTVYLQMNSLKPEDTAVYYCNTRVYAGKYDYWGQGTQVTVSS | high polyreactivity
QVQLVESGGGLVQAGGSLRLSCAASGRIFVGNTMGWYRQAPGKERELVAAISWRGRTSYADSVKGRFTISRDNAKNTVYLQMNSLKPEDTAVYYCNAEHAGATRYYYIANWMDYWGQGTQVTVSS | low polyreactivity
QVQLVESGGGLVQAGGSLRLSCAASGRIFVGYAMGWYRQAPGKEREFVAAITIGGTDTYYADSVKGRFTISRDNAKNTVYLQMNSLKPEDTAVYYCNADLLYPYDFDYWGQGTQVTVSS | low polyreactivity
QVQLVESGGGLVQAGGSLRLSCAASGRIFVGYAMGWYRQAPGKERELVAAINRSGSSTYYADSVKGRFTISRDNAKNTVYLQMNSLKPEDTAVYYCNARSGNRYGPRYDYWGQGTQVTVSS | high polyreactivity
QVQLVESGGGLVQAGGSLRLSCAASGRIFVGYAMGWYRQAPGKERELVAAISSDGGSTYYADSVKGRFTISRDNAKNTVYLQMNSLKPEDSAVYYCNAYYGRFPYYADDYWGQGTQVTVSS | low polyreactivity
QVQLVESGGGLVQAGGSLRLSCAASGRIFVGYAMGWYRQAPGKERELVAAITGSGGGTYYADSVKGRFTISRDNAKNTVYLQMNSLKPEDTAVYYCAATGYLKVRGYYAWHFYYWGQGTQVTVSS | high polyreactivity
QVQLVESGGGLVQAGGSLRLSCAASGRIFVGYAMGWYRQAPGKERELVAAITKSGGRTYYADSVKGRFTISRDNAKNTVYLQMNSLKPEDTAVYFCAKYLGRQHEKDLGGMNYWGQGTQLTVSS | high polyreactivity
QVQLVESGGGLVQAGGSLRLSCAASGRIFVGYAMGWYRQAPGKERELVAAITKSGGRTYYADSVKGRFTISRDNAKNTVYLQMNSLKPEDTAVYYCAVLNSKWNEYDYWGQGNQVTVSS | high polyreactivity
QVQLVESGGGLVQAGGSLRLSCAASGRIFVGYGMGWYRQAPGKERELVASIDTGGSTYYADSVKGRFTISRDNAKNTVYLQMNSLKPDDTAVYYCAADYQSYTSLTGYHNSEGDPWGQGTQVTVSS | low polyreactivity
QVQLVESGGGLVQAGGSLRLSCAASGRIFVHNAMGWSRQAPGKERELVAAISSGGSTYYADSVKGRFTISRDNAKNTVYLQMNSLKPEDTAVYYCAIYAYYNKYDYWGQGTQVTVSS | high polyreactivity
QVQLVESGGGLVQAGGSLRLSCAASGRIFVHYAMGWYRQAPGKERELVAAITSGSSTNYADSVKGRFTISRDNAKNTVYLQMNSLKPEDTAVYYCAADYSVHMVRDRWFDYWGQGTQVTVSS | low polyreactivity
QVQLVESGGGLVQAGGSLRLSCAASGRIFVIYAMGWNRQAPGKERELVASITDGTITNYADSVKGRFTISRDNAKNTVYLQMNSLKPEDTAVYYCAAGTQAHAYVVRPIEMDYWGQGTQVTVSS | low polyreactivity
QVQLVESGGGLVQAGGSLRLSCAASGRIFVIYGMGWYRQAPGKERELVAAIRWTGGSTYFADSVKGRFTISRDNAKNTVYLQMNSLKPEDTAVYYCNAGSDRAIWPTHDYWGQGTQVTVSS | low polyreactivity
QVQLVESGGGLVQAGGSLRLSCAASGRIFVIYGMGWYRQAPGKERELVATISWSGSSTSYADSVKGRFTISRDNAKNTVYLQMNSLKPEDTAVYYCAAYTWYSRHRMNYWGQGTQVTVSS | high polyreactivity
QVQLVESGGGLVQAGGSLRLSCAASGRIFVKNAMGWYRQAPGKERELVATISSGGNTNYADSVKGRFTISRDNAKNTVYLQMNSLKPEDTAVYYCAAVWDLGDYELPYDYWGQGTQVTVSS | low polyreactivity

Sequence | polyreactivity (PSR sort gate)
QVQLVESGGGLVQAGGSLRLSCAASGRIFVKYAMGWYRQAPGKERELVAAITNSGGRTYYAASVKGRFTISRDNAKNTVYLQMNSLKPEDTAVYYCAALYHASTRQMDYWGQGTQVTVSS | high polyreactivity
QVQLVESGGGLVQAGGSLRLSCAASGRIFVKYAMGWYRQEPGKERELVAAIRWSVGSTYYADSVKGRFTISRDNAKNTVYLLMNSLKPEDTAVYYCAAQPVRKLYWGQGTQVTVSS | high polyreactivity
QVQLVESGGGLVQAGGSLRLSCAASGRIFVKYVMGWYRQAPGKERELVAAISSSGGRTYYADSVKGRFTISRDNAKNTVYLPMNSLKPEDTAVYYCNAVRRRSSLKLDSWGQGTQVTVSS | high polyreactivity
QVQLVESGGGLVQAGGSLRLSCAASGRIFVLYDMGWYRQAPGKERELVAGISGSGGRTYYADSVKGRFTISRDNAKNTVYLQMNSLKPEDTAVYYCNARGYYWYRPYVNSNGGYWGQGTQVTVSS | high polyreactivity
QVQLVESGGGLVQAGGSLRLSCAASGRIFVNNAMGWYRQAPGKERELVAAISKRGGSTYYADSVKGRFTISRDNAKNSVYLQMNSLKPEDTAVYYSAATPVYSGPYDYWGQGTQVTVSS | high polyreactivity
QVQLVESGGGLVQAGGSLRLSCAASGRIFVNYAMGWYRQAPVKERELVATITWSGGSTFYADSVKGRFTISRDNAKNTVYLQMNSLKPEDTAVYYCAQRGYVRSGLGRPYADDYWGQGTQLTVSS | low polyreactivity
QVQLVESGGGLVQAGGSLRLSCAASGRIFVPNAMGWYRQAPGKERELVAAITSSGSSTYYADSVKGRFTISRDNAKNTVYLQMNSLKPEDTAVYYCNTLWGGFSWFRVDSWGQGTQVTVSS | high polyreactivity
QVQLVESGGGLVQAGGSLRLSCAASGRIFVPYAMGWYRPAPGKERELVAAITWRGGRTYYADSVKGRFTISRDNAKNTVYLQMNSLKPEDTAVYYWAARGWTVTERYYWGQGTQVTVSS | high polyreactivity
QVQLVESGGGLVQAGGSLRLSCAASGRIFVPYAMGWYRQAPGKERELVAAISWRGGSTNYADSVKGRFTISRDNAKNTVYLQMNSLKPEDTAVYYCAAVPVRYRYSYGYYYWGQGTQVTVSS | high polyreactivity
QVQLVESGGGLVQAGGSLRLSCAASGRIFVPYVMGWYRQAPGKERELVASISDSDTSTYYADSVKGRFTISRDNAKNTVDLQMNSLKPEDTAVYYCNVDYWGQGTQVTVSS | low polyreactivity
QVQLVESGGGLVQAGGSLRLSCAASGRIFVPYVMGWYRQAPGKERELVASISDSDTSTYYADSVKGRFTISRDNAKNTVYIQMNSLKPEDSAVYYCNVDYWGQGTQVTVSS | low polyreactivity
QVQLVESGGGLVQAGGSLRLSCAASGRIFVQYAMGWYRQAPGKERELVAAISYSGGRTYYADSVKGRFTISRDNAKNTVYLQMNSLKPEDTAVYYCAAVRAGYYGYWGKGTQVTVSS | high polyreactivity
QVQLVESGGGLVQAGGSLRLSCAASGRIFVQYDMGWYRQAHGKERELVAAITGGGGSTYYADSVKGRFTISRDNAKNTVYLQMNSLKPEDTAVYYCAADQDVYDFTGYDYWGQGTQVTVSS | low polyreactivity
QVQLVESGGGLVQAGGSLRLSCAASGRIFVQYDMGWYRQAPGKERELVAAITGGGGSTYYADSVKGRFTISRDNAKNTVYLQMHSLKPEDTAVYYCAADQDVYDFTGYDYWGQGTQVTVSS | low polyreactivity
QVQLVESGGGLVQAGGSLRLSCAASGRIFVRNAMGWYRQAPGKEREFVAAISRSGGSTYYAYSVKGRFTISRDNAKNSVYLQMNSLKPEDTAVYYCAADYPKTYTSKFNYWGQGTQVTVSS | high polyreactivity
QVQLVESGGGLVQAGGSLRLSCAASGRIFVRNAMGWYRQAPGKERELVAAITRTGASTYYADSVKGRFTISRDNAKNTVYLQMNSLKPDDTAVYYCAAVWGWPYWVYRYDYWGQGTQVTVSS | high polyreactivity
